According to patent US20130137856A1 (published 2013):

Experiments:
[1] = biological target: full-length human β2AR in commercial insect cell-derived membranes (human, UniProt P07550 1-413); assay: cell-based or functional assay
[2] = biological target: β2AR truncated after amino acid 365 (β2AR-365) having an amino terminal Flag epitope tag, native, … (human, UniProt P07550 1-365); assay: cell-based or functional assay

B1: Nanobody-80 (Nb80) (VHH, not shown: small tags and cut ends)
VHH: QVQLQESGGGLVQAGGSLRLSCAASGSIFSINTMGWYRQAPGKQRELVAAIHSGGSTNYANSVKGRFTISRDNAANTVYLQMNSLKPEDTAVYYCNVKDYGAVLYEYDYWGQGTQVTVSS
[1]
  Potency shift of CGP12177A (antagonist): IC50 with irrelevant Nb / IC50 with 500 nM Nb80, 3H-DHA competition: 1 ratio
  Potency shift of ICI118,551 (inverse agonist): IC50 with irrelevant Nb / IC50 with 500 nM Nb80, 3H-DHA competition: 0.9 ratio
  Potency shift of alprenolol (antagonist): IC50 with irrelevant Nb / IC50 with 500 nM Nb80, 3H-DHA competition: 1.1 ratio
  Potency shift of carvedilol (antagonist): IC50 with irrelevant Nb / IC50 with 500 nM Nb80, 3H-DHA competition: 1.2 ratio
  Potency shift of dobutamine (partial agonist): IC50 with irrelevant Nb / IC50 with 500 nM Nb80, 3H-DHA competition: 2.3 ratio
  Potency shift of fenoterol (full agonist): IC50 with irrelevant Nb / IC50 with 500 nM Nb80, 3H-DHA competition: 3.7 ratio
  Potency shift of formoterol (agonist): IC50 with irrelevant Nb / IC50 with 500 nM Nb80, 3H-DHA competition: 4 ratio
  Potency shift of isoproterenol (agonist): IC50 with irrelevant Nb / IC50 with 500 nM Nb80, 3H-DHA competition: 8.8 ratio
  Potency shift of metaproterenol (agonist): IC50 with irrelevant Nb / IC50 with 500 nM Nb80, 3H-DHA competition: 2.9 ratio
  Potency shift of procaterol (agonist): IC50 with irrelevant Nb / IC50 with 500 nM Nb80, 3H-DHA competition: 2.3 ratio
  Potency shift of ritodrine (agonist): IC50 with irrelevant Nb / IC50 with 500 nM Nb80, 3H-DHA competition: 2.7 ratio
  Potency shift of salbutamol (partial agonist): IC50 with irrelevant Nb / IC50 with 500 nM Nb80, 3H-DHA competition: 4.2 ratio
  Potency shift of salmeterol (full agonist): IC50 with irrelevant Nb / IC50 with 500 nM Nb80, 3H-DHA competition: 3.3 ratio
  Potency shift of terbutaline (partial agonist): IC50 with irrelevant Nb / IC50 with 500 nM Nb80, 3H-DHA competition: 4.3 ratio
  Potency shift of timolol (antagonist): IC50 with irrelevant Nb / IC50 with 500 nM Nb80, 3H-DHA competition: 0.6 ratio

B2: Nb65 (VHH, not shown: small tags and cut ends)
VHH: QVQLQESGGGLVQAGGSLRLSCAASGSIFSINTMGWYRQAPGKQRELVAAIHSGGSTNYADSVRGRFTISRDNAKNTVYLQMNSLKPEDTAVYYCNVKDYGAVLYEYDYWGQGTQVTVSS
[2]
  Isoproterenol Ki, [3H]-DHA competition binding on Sf9 membranes in the presence of 1 µM nanobody (β2AR alone: 295): 13.8 nM

B3: Nb71 (VHH, not shown: small tags and cut ends)
VHH: QVQLQESGGGLVQPGGSLRLSCAASGFAFSSYELRWYRQAPGKQHELVAGITTGGNTYYADSVKGRFTISRDNAKNTVYLQMSNLRPEDTAVYACNANWDLLSDYWGQGTQVTVSS
[2]
  Isoproterenol Ki, [3H]-DHA competition binding on Sf9 membranes in the presence of 1 µM nanobody (β2AR alone: 295): 10.6 nM

B4: Nb67 (VHH, not shown: small tags and cut ends)
VHH: QVQLQESGGGLVQAGGSLRLSCAASGTISSFIAMGWYRQSPGKQRELVAGITSGGETNYEDSVKGRFTISRDNAKNTLYLQMNTLKPEDTAVYYCNAQVFADIFNLINYWGQGTQVTVSS
[2]
  Isoproterenol Ki, [3H]-DHA competition binding on Sf9 membranes in the presence of 1 µM nanobody (β2AR alone: 295): 19.4 nM
